From patent WO2021228904A1 (dated 2021) come the findings set out here.

A value given as a limit tells only on which side of the number the result lay.

B1: 002_P1D6 (antibody, V domains shown)
VH: EVQLLESGAEVKKPGESLKISCKGSGYSFTSYWIGWVRQMPGKGLEWMGIIYPGDSDTRYSPSFQGQVTISADKSISTAYLQWSSLKASDTAMYYCARHMRPSIAARPGYQYYMDVWGKGTRVTVSS
VL: not shown
B2: COVA2-29 (antibody, V domains shown)
VH: EVQLVESGGGVVQPGRSLRLSCAASGFTFSSYTMHWVRQAPGKGLEWVAVISYDGSNKYYADSVKGRFTISRDNSKNTLYLQMNSLRAEDTAVYYCASLPVVPAAIGPLPAFDIWGQGTMVTVSS
VL: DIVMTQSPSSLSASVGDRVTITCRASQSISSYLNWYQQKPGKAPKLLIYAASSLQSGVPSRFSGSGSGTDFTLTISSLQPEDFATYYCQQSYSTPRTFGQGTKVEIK
B3: COVA2-02 (antibody, V domains shown)
VH: VQLQQESGPGLVKPSETLSLTCTVSGGSISSSSYYWGWIRQPPGKGLEWIGSIYYSGSTYYNPSLKSRVTISVDTSKNQFSLKLSSVTAADTAVYYCARRSTSRWGYYYMDVWGKGTRVTVSS
VL: DIVMTQSPSSLSASVGDRVTITCRASQSISNYLNWYQQKPGKAPKLLLYAASDLQSGVPSRFSGSGSGTDFTLTISSLQPEDFATYYCQQSYSTHMSTFGQGTKVDIK
B4: 002_P2H1 (antibody, V domains shown)
VH: EVQLVESGGGLIQPGGSLRLSCAASGFTVSSNYMSWVRQAPGKGLEWVSVIYSGGSTYYADSVKGRFTISRDNSKNTLYLQMNSLRAEDTAVYYCASPLLLTPPDYYYYMDVWGKGTMVTVSS
VL: DVVMTQSPSSLSVSVGDRVTITCRASQGIRNDLGWYQQKPGKAPKRLIYAASSLQSGVPSRFSGSGSGTEFTLTISSLQPEDFATYYCLQHNSYLWTFGQGTKLEIK
B5: COVA1-16 (antibody, V domains shown)
VH: QVQLVQSGAEVKKPGASVKVSCKASGYTFTSYYMHWVRQAPGQGLEWMGIINSSGGSTSYAQKFQGRVTMTRDTSTSTVYMELSSLRSEDTAVYYCARPPRNYYDRSGYYQRAEYFQHWGQGTLVTVSS
VL: DIQLTQSPSSLSASVGDRVTITCQASQDISNYLNWYQQRPGKAPKLLIYDASNLETGVPSRFSGSGSGTDFTFTISSLQPEDIATYYCQQYDNPPLTFGGGTKLEIK
B6: SEQ ID NOs: 389/393 (HCVR/LCVR) (antibody, V domains shown)
VH: EVQLVESGAEVKKPGSSVKVSCKASGGTFSSYAISWVRQAPGQGLEWMGGIIPIFGTANYAQKFQGRVTITTDESTSTAYMELSSLRSEDTAVYYCARGPRYCSSTSCYAGVYFDYWGQGTRVTVSS
VL: not shown
B7: SEQ ID NOs: 233/237 (HCVR/LCVR) (antibody, V domains shown)
VH: EVQLVESGGGLVQPGGSLRLSCAASGFTFSSYSMNWVRQAPGKGLEWVSYISSSSSTIYYADSVKGRFTISRDNAKNSLYLQMNSLRAEDTAVYYCAREANSDFWSGYLGYFDYWGQGTLVTVSS
VL: EIVMTQSPATLSLSPGERATLSCRASQSVSSYLAWYQQKPGQAPRLLIYDASNRATGIPARFSGSGSGTDFTLTISSLEPEDFAVYYCQQRSNWPQVTFGQGTRLEIK
B8: 002_P1H2 (antibody, V domains shown)
VH: EVQLVESGAEVKKPGSSVKVSCKASGGTLSSYAISWVRQAPGQGLEWMGGIIPIFGTANYAQKFQGRVTITTDESTSTAYMELSSLRSEDTAVYYCARGPRGCSSTSCYGSYFDYWGQGTLVTVSS
VL: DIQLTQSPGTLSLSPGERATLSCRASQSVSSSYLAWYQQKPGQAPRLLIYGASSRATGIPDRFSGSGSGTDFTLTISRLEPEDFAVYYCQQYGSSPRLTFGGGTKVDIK
B9: SEQ ID NOs: 469/473 (HCVR/LCVR) (antibody, V domains shown)
VH: QVQLVQSGAEVKKPGESLRISCKGSGYSFTSHWISWVRQMPGKGLEWMGRIDPSDSYTNYSPSFQGHVTISADKSISTAYLQWSSLKASDTAMYYCARLKVITIFGVVRDDYGMDVWGQGTTVTVSS
VL: QSALTQPASVSGSPGQSITISCTGTSSDVGSYNLVSWYQQHPGKAPKLMIYDSSKRPSGVSNRFSGSKSGNTASLTISGLQAEDEADYYCCSYAGSVFGGGTKLTVL
B10: COVA2-39 (antibody, V domains shown)
VH: QVQLVETGGGLIQPGGSLRLSCAASGFTVSSNYMSWVRQAPGKGLEWVSVIYTGGTTYYADSVKGRFTISRDNSKNTLYLQMNSLRAEDTAVYYCARAHVDTAMVESGAFDIWGQGTRVTVSS
VL: QSALTQPASVSGSPGQSITISCTGTSSDVGSYNLVSWYQQHPGKAPKLMIYEVTKRPSGVSNRFSGSKSGNTASLTISGLQAEDEADYYCCSYAGSSTWVFGGGTKLTVL

The test deals with stabilized prefusion SARS-CoV-2 S ectodomain (SARS-CoV-2 (Wuhan-Hu-1), UniProt P0DTC2 15-1138). Description: SPR. For orientation: Surface plasmon resonance follows binding to a sensor surface in real time, without labels.
For orientation: Kd means the equilibrium constant for the complex coming apart. Lower therefore signals higher affinity. With B1, the Kd is no more than 1 nM. In the case of B2 it was no more than 1 nM; in that of B3, no more than 1 nM. In the case of B4 it was no more than 1 nM.

Molecule B5 gave a Kd of no more than 1 nM. B6 had a Kd of no more than 1 nM. With B7, the Kd is no more than 1 nM. Molecule B8 gave an equilibrium dissociation constant (Kd) of no more than 1 nM. In the case of B9 it was no more than 1 nM. B10 showed a dissociation constant (Kd) of no more than 1 nM.
